For 19 sequences, protein production results are on record in a protein production outcome set (Wang et al. 2014).

A short description of the data set: label from the status in PepcDB records.
For the sequence “MDKQKEQLSIEVARLYYQSDLGQQEIATRLGVSRPTVSRLLQNAKLKGYVKIEVQDPFSNLTELANALKEKYQLKNVTVAFSQTNDYSEISKQISQSAAEYLEEIIHDDDILGVSWGTTMYKIAQKLSPQKAEIKVVQLKGGVSHSDVNTYAAETLALFGAAYDTAPVSLPLPVVLDNPLAKQMVEADRHIKNIIELGKKANIAIFTVGTVREEALLFRLGYFSDEEKIRLKEKAVGDICSRFFTINGEIADEKMNERTIGIDLQDLKQKETAILVAGGERKIKAIHGALRGGYANHFITDQYTAKQLLEQNFSN”, the protein production result is given as “failed”. As for “MDKQQRGIQVIRIWLGVTMLIHGVMKVTSLEDTLAFFASIGLPSLFVYGVAAIELIGGLFMIIGFLIPLVSVGFIAVLVGAIFSFGLASGFSGYEYELFLAITSLAILVSYADKKYLTLKLYF”, the protein production result was “failed”.

For the sequence “MDKYPFLREAGSSFKDRDVTKMSDLIATWDGQDIKGPALIGVPLSKSSISHSGASFAPGTIRQALKHSSAYSAELGEHVVSELLYDLGDIDIHVTDIVKSHHHIFQTMHALLSDHPDWVPLILGGDNSISYSTIKAIAQTKGTTAVIQFDAHHDVRNTEDGGPTNGTPFRRLLDEEIIEGQHLIQLGIREFSNSQAYEAYAKKHNVNIHTMDMIREKGLIPTIKEILPVVQDKTDFIFISVDMDVLDQSHAPGCPAIGPGGLYTDELLEAVKYIAQQPNVAGIEIVEVDPTLDFRDMTSRAAAHVLLHALKGMKLSPFK”, the protein production entry is reported as “not failed”. Next, “MDLDVYVSAHRAEWDRLDDLLRRRRRLTGAEADELVALYQRTATHLSVIQSSAPDPQLTGRLSQLVARARSAVTGTRRASWRDVTRFLAYGFPAAVYRARHWWVPTALLSTVTAVLLGWWIGTHPEVQSSIAAPSELRALTRPGGEYETYYSSHPAASFAAQVWTNNAQAAAMCLVLGIFLGLPVLWILFQNMLNLGVGLGLMSSAGRLDTFLGLVLPHGLLELTAVFVAAGTGLRLGWTLIDPGPRSRRTALAEEGRAALGMAVGLALVLFVSGAIEGFVTPSGLPTWARIGIGIAAELAFLTYVYVLGGRATRAGDTGDIEAAERSATVPTAA”: “failed”.

For the sequence “MDLHGCAKNQVDAELIIGIMENLSWKNTSDPDEADLIIVNSCGFINSAKEESINAVLQAKAAHPKAKVLLAGCLAERYADILKNDLPEADGIFGNGNLSLLPQLIDSMFPKKTSDEKFIEKTLVPPQIGICGGERPKILNFPRSTYIKITEGCDNFCSFCAIPIIRGRLRSRPIKDICDEIKTFLKKSFYEFNLIGQDLAAYQTGKDDLSEDELHRENCSGLALLLKSISKIKGNFKIRLLYIHPDHFPLDILPIMTADKRFLPYFDIPFQSGAQKIIRAMNRNGAAEVYLDIIKNIREAFEKTNSPYGEPQIRTTFLVGFPGETDEDFNETIKFLKELRPLWSGGFTYSREEDTPSYSFKGKVPKKTAEARLAEIQNAQTSITEKKLDSFIGKEIEVLVEELIQAEDKTFLALGRAWFQAPEVDGAVVLNFNLNKKDIDGNPIAPGSIVKARIAARNGFDLEAVAV”, the protein production result is given as “failed”. Take “MDLHSLCVDSHALRRDGMRFLHTADWQLGMTRHFLAGDAQPRYSAARRDAVAGLKALAADVGAEFVVVAGDVFEHNQLAPQIVGQSLEAMRVIGLPVYLLPGNHDPLDASSVYTSTLFRAERPDNVVVLDRAGVHEVRPGVQIVAAPWRSKAPTTDPVAEVLAGLPTDAAIRLLVAHGGVDALDPDHDKPSLIRLAALDDALTRQAIHYVALGDKHSLTQVGSSGRVWYSGAPEVTNFDDVEPDPGHVLVVDIDESDPRHPVTVDARRIGRWRFVTLHHQVDTSRDIADLDLNLDLMTDKDRTVVRLALTGSLTVTDRAALDTCLDKYARLFAWLGLWERHTDLAVIPVDAEFTDLGIGGFAAAAVDELVATARGGDDESAVDAQAALALLLRLADRGAALEHHHHHH”: the protein production entry was “failed”.

With “MDLICMYVFKGEESFGESIDVYGDYLIVKVGTEFLAVPKKSIKSVEDGRIVIGEFDEEEARELGRKWLEEKSKPVTLEELKSYGFGEEGE”, the protein production entry is listed as “not failed”.

On to “MDLIEPAVRVFLGVFFLMIGLQFAARTLGLYSRLGFSHINYGKTGTATWWHRHTFNLFRAAILLMCLARIWVDLDAWLGVFPLLYHWPVLLAGAVLLLVSYTSVNYLQAYMHEDWRSGIDDHHGSGHLLTDGPFGRSRNPLFLAVMTGQLGFFLALPSVFSLVCLVTGVLVIMRQAREEEKALAKRFGEQYEAYCKRVPRWF”, for which the protein production entry is “failed”. For “MDLKESQEFSGLIAGKPRISYQNDYGGHRTNLHLLDSRLWIILSGQAAILGFCGNTVLAEDESMKSKSGDNMDESGNTGLEKIEDGSVVSNIHTSKWRVFTDSGRDYFFQGKLEPAERLFGSAIQEAKEGFGEKDPHVASACNNLAELYRVKKEFDKAEPLYLEAVSILEEFYGPDDVRVGATLHNLGQLYLVQRKLEEARACYEIRRCVFAVISYVKNYDELES”, the protein production result was “failed”. For “MDLSTAFPTLVTDLPAAFSMSVVGGVGLAMIVLDAFRNDHPAIPWLGVAALGVSAVWEITHLGAPPSTVFFETLRTGGFVAFINLIILLTGLATILLSVPYLNQLRYDYGEVYALIMFCTVGMIMLGSANNMVSIFLGLETMSVCLYVLTGFIREDEGAVESALKYFLLGAFSTGFFLYGIALMYGATGTMALPAMAAAELGTLSTRLLFWGGFALFLVGFFFKVSAAPFHMWTPDVYQGAPTPLTGYMSTATKAAAFAALILVLVHAVPGGEWQLSVAAVAVLTMVIGNVMALAQTNVKRLLAYSSIAHAGYLLVGLSAGTSAGYAGALFYLLVYAVMNIGAFGVMSMLEWDGKEGREQTLSSLAGIANDRPVLGSTMGVFMLSLIGFPPLGGFIGKYLVFAPAVDAGLTWLVVIGVLMSALSAYYYLRVVYVFWMQSADEVAATDPVRAAAFPRATVAATGTLVVCAVALVVLGVFFGGVLETTLGFFETTAMATAP”, the protein production entry was “failed”.

With “MDLTISNELTGEIYGPIEVSEDMALTDLIALLQADCGFDKTKHDLYYNMDILDSNRTQSLKELGLKTDDLLLIRGKISNSIQTDAATLSDEAFIEQFRQELLNNQMLRSQLILQIPGLNDLVNDPLLFRERLGPLILQRRYGGYNTAMNPFGIPQDEYTRLMANPDDPDNKKRIAELLDQQAIDEQLRNAIEYTPEMFTQVPMLYINIEINNYPVKAFVDTGAQTTIMSTRLAKKTGLSRMIDKRFIGEARGVGTGKIIGRIHQAQVKIETQYIPCSFTVLDTDIDVLIGLDMLKRHLACVDLKENVLRIAEVETSFLSEAEIPKSFQEGLPAPTSVTTSSDKPLTPTKTSSTLPPQPGAVPALAPRTGMGPTPTGRSTAGATTATGRTFPEQTIKQLMDLGFPRDAVVKALKQTNGNAEFAASLLFQ”, the protein production entry is listed as “failed”. For “MDLTKQFPRSPVDRLGGMDHLKRVIDKARAHVAGTLGEYTYNCPLDQAFFSFFGLDHEKFAEAVKSRPQDQDMLAWVHSQSPRSKNPKEVESFNREYESRSPDSPEKWDYFRSVRDSLAPGRTDITTWVKLLDLEEKRPV”, the protein production result was “not failed”. Regarding “MDMLFQWLLLTAAVAAGWAVGRYGNRSGRASRAIMDEDSVRDRLQFLFTNYSDQAVDNFVQSLAVNKDTVSLHLSIGSHFRNKGETDRAILIHQNLLARPELPARYSPQVTQELAMDYLNAGLLDRAEALFHQLMGDREYGRRSAIALIELYQQEREWEKAAQVAKTLTRSDADPATFKALAYITCELSDGALSRNDDRWTAQKLAKEALDYDRSCVRATLLLMKLQIRQGNFREAANQSLKIFDQNPEFGPEAIDRLMKLEREHGDVSRLYKKLRKLYEQYPSTSLLLALVESVERSSGRPAAIDLLRMELETRPSVRGLLRLVEMAGYEKGMTTDEGRLVSRIGHLILANRPVYRCVSCGFSGQQLHWLCPSCKQWETVRPIQGVEAE”, the protein production result is reported as “failed”. The same measure for “MDMRVSWFLLLLPFVLTSALAATSAASHASGPPAFMGQLTLLLLVAGATAFASFRLGLVPIIGFLFAGVLAGPSALGIIDDPALIGAASEIGVMLLLFTIGIEFSLDKLARIFRLIFVGGGLQVLLTVAAVTGVLLAFGVSLPNAVFTGFLLSLSSTAIVTKILESRGGVGSPTGQASLGILIFQDLAVVVMVLLVPMLAGQGGGAGGLVVALLKAGGIVAAVLLLARRVVPKLLEVVARTCSQEIFLLSTLSLCFATAYLTSLAGVSLALGAFLAGLLVSESRFGQQAFGEILPLQILFSAAFFLSVGLQLDLGFLWTHLPLVLGAVAVFAVLKALAAALSVRLLGFPLATAAATGWLLAQVGEFSFVLESSGRALGLSPAGLGETGTQTFIAATVLLMALTPVMATLGERLGALGRARPAPTAAPAEAPTRAEPNPEAPLAHLSGHVLVAGFGDHARRLVKGLAAQQVPFGVLTLSPDGAAQVTAHGYPVLIGDYARAGLLGDAGLASARALVVLDDVPEMTARVIGVARTLNPELTIVAHTDEPGEIATLRGVGATHVLTSTDAVARGVLGL”: “failed”. The same measure for “MDMTYNMRNAMASSRNMEEPQYDMSTIDLTQNSMNTNYLMNGSVLTNAYNNDYIVNNRDKYTGDMISQLKIDQGIPTYSHTLPMNGTTLADTNDSLNIQGMMRTNMDTTGFDGYSHIMNYNNTQNTIQTNPITYRMEDYNNLNNDVMYINPTTGEKFSAEYVNNIPTNDSDNMLYSNNFKNNSINMNTLLNSHYNNLPYPMPIYESMNNPQMYMQHMNQKQTVNIPLQHGEKKSAARNISTVNKRRIKTKKFFPCC”: “failed”; for “MDMYHTKILKAIESEDYISVRRRVLRQLVESLIYEGIITPARIEKEEQILFLIQGLDEDNKSVTYECYGRERITFGRISIDSLIVRVQDGKQEIQSVAQFLEEVFRVVNVEQTKLDSFIHELEQTIFKDTIAQYERCNKLKYTQKSYDELENHLIDGHPYHPSYKARIGFQYRDNFRYGYEFMRPIKLIWIAAHKKNATVGYENEVIYDKILKSEVGERKLEAYKERIHSMGCDPKQYLFIPVHPWQWENFIISNYAEDIQDKGIIYLGESADDYCAQQSMRTLRNVTNPKRPYVKVSLNILNTSTLRTLKPYSVASAPAISNWLSNVVSQDSYLRDESRVILLKEFSSVMYDTNKKATYGSLGCIWRESVHHYLGEQEDAVPFNGLYAKEKDGTPIIDAWLNKYGIENWLRLLIQKAIIPVIHLVVEHGIALESHGQNMILVHKEGLPVRIALKDFHEGLEFYRPFLKEMNKCPDFTKMHKTYANGKMNDFFEMDRIECLQEMVLDALFLFNVGELAFVLADKYEWKEESFWMIVVEEIENHFRKYPHLKDRFESIQLYTPTFYAEQLTKRRLYIDVESLVHEVPNPLYRARQLNIQKSVATGGNYANC”: “failed”.

For “MDNALTFVISTLCILALCYRFYGVFFVRKVLRADDSVVTPSHTFEDGKNYVPTKKWVNAGQHFAAIAAAGPLVGPVLAAQFGYLPGFLWLLVGCVVGGAVHDTVVLFASMKHNGKSLSNVAKAELGPVAGWCTGLAMLFIITITMAGLSMVVVHALERNPWGTFAVFMTIPIAIAVGLYERFTGNHKGATWVGIIAIMVAVLAGPYIQGTLLGDWLTLRVDSVALALPIYAFFASALPVWLLLTPRGYLSSFMKIGVFGALVVGVVIINPTIQFPALTDFIHGGGPVLAGPVWPFISITIACGAISGFHAFIGSGTTPKLVDKWSDIRPVAFGAMLAECMVAVLALVAATALHPADYFAINASPAAFASLGMEVVDLPHLSQEIGMDLAGRTGGAVTLAVGMTFIFTKLPWFATLSSYFFQFVIMFEAVFILTAVDSGTRVARYLIQDLGGDLYAPLKRLDWIPGSIGASVAACALWGYLLTSGDINSVWALFGVSNQLMASIGLIIGATIILRVAAKRIYMLTCLIPLAYLFVTVNYAGYWMIANVYLNTQARGYNPINAGISAIMMVLGLIILITAFGKWKTMLALPKSLRSGEVPAPSLP”, the protein production entry is reported as “failed”. As for “MDNDRDTVEFWSSLFQSFADSEPKDNPYPVVRSPIMTMSTPMAIDEPVEPWKVLEYGGKEVRPMAIDEPAEPWKALEYGGKDVRPMAIDVPAEPWKVGGKEAQPANAAAEAGYKNVNTDQEKSTQKATEKVIM”, the protein production result was “not failed”. Next, “MDNITFPSQGSLSSSNQTFDSQSAARNSNAPPEYVNQGLLLWNQTRERWVGKDKPNNPVDHNQGAKLNWNTATYDSLLGSNKLFPQPIPLTEMVDFLVDIWEQEGLYD”: “failed”.
